Results on nine molecules are retold here after US7208581 (BURNHAM INSTITUTE FOR MEDICAL RESEARCH, dated 2007).

T1: hTRAF 2 (complete open reading frame, in vitro translated from pcDNA3-HA-TRAF2) (human, UniProt Q12933 2-501, 35S-methionine labelled)
T1 construct: mature; also called human TRAF 2; not shown: HA tag of the pcDNA3-HA vector
T1 sequence (looked up): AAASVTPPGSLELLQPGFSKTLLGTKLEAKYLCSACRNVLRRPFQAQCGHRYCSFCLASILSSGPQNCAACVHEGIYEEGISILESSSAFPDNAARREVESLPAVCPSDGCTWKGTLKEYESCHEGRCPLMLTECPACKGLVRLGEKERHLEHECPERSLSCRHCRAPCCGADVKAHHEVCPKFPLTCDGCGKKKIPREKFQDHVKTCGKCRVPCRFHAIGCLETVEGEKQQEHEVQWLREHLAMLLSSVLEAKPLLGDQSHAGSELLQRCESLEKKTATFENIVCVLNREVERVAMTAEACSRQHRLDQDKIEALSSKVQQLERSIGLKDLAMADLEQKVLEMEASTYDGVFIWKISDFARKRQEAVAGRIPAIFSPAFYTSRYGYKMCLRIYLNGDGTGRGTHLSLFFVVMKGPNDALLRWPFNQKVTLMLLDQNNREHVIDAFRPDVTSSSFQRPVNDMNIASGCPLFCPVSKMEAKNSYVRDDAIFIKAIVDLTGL

T2: hTRAF4 (complete open reading frame, in vitro translated from pcDNA3-HA-TRAF4) (human, UniProt Q9BUZ4 1-470, 35S-methionine labelled)
T2 construct: mature; also called human TRAF 4; not shown: HA tag of the pcDNA3-HA vector
T2 sequence (looked up): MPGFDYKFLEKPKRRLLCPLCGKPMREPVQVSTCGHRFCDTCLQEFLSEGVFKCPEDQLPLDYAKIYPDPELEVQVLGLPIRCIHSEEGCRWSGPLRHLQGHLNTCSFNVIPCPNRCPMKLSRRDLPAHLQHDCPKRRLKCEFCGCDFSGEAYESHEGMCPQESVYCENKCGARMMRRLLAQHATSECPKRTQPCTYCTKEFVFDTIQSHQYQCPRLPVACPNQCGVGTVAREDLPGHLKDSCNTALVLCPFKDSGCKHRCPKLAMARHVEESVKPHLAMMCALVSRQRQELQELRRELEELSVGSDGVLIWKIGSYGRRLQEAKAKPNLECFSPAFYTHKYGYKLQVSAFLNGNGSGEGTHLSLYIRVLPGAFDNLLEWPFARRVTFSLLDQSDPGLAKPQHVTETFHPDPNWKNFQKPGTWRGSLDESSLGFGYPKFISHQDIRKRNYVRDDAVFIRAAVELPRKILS

T3: full-length I-TRAF (in vitro translated) (UniProt Q92844 1-425, limits assumed, 35S-methionine labelled)
T3 construct: mature
T3 sequence (looked up): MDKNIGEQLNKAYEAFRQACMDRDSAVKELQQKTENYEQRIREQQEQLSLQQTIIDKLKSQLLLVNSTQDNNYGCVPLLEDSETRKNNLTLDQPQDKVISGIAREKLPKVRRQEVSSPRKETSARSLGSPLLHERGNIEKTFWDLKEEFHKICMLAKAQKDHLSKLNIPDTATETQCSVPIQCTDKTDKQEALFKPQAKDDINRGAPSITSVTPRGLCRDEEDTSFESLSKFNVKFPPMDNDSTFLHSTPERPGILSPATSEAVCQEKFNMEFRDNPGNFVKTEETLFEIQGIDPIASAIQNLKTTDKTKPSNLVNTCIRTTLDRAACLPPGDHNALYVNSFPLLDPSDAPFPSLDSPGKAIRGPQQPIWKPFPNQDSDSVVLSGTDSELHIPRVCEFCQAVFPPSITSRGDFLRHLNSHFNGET

B1: TRAF7 (282-435), not GST-fused (pcDNA3-myc-TRAF7 (282-435)) (other)
chain: FTSELVPSYDSATFVLENFSTLRQRADPVYSPPLQVSGLCWRLKVYPDGNGVVRGYYLSVFLELSAGLPETSKYEYRVEMVHQSCNDPTKNIIREFASDFEVGECWGYNRFFRLDLLANEGYLNPQNDTVILRFQVRSPTFFQKSRDQHWYIT
notes: transfected in the reporter assay; also called in vitro translated TRAF7 (282-435); TRAF domain of TRAF7; not shown: myc tag of the pcDNA3-myc vector
B2: GST-DR4(ct) (receptor, UniProt O00220 263-468, looked up)
chain: CIGSGCGGDPKCMDRVCFWRLGLLRGPGAEDNAHNEILSNADSLSTFVSEQQMESQEPADLTGVTVQSPGEAQCLLGPAEAEGSQRRRLLVPANGADPTETLMLFFDKFANIVPFDSWDQLMRQLDLTKNEIDVVRAGTAGPGDALYAMLMKWVNKTGRNASIHTLLDALERMEERHAREKIQDLLVDSGKFIYLEDGTGSAVSLE
notes: domain: cytosolic domain; not shown: glutathione S-transferase tag of plasmid pGEX-DR4(ct)
B3: GST-TNF-R2(ct) (receptor, UniProt P20333 288-461, looked up)
chain: KKKPLCLQREAKVPHLPADKARGTQGPEQQHLLITAPSSSSSSLESSASALDRRAPTRNQPQAPGVEASGAGEARASTGSSDSSPGGHGTQVNVTCIVNVCSSSDHSSQCSSQASSTMGDTDSSPSESPKDEQVPFSKEECAFRSQLETPETLLGSTEEKPLPLGVPDAGMKPS
notes: domain: cytosolic domain; Plasmid provided by Dr. C; Ware; also called TNF-receptor 2; not shown: glutathione S-transferase tag of plasmid pGEX-TNF-R2(ct)
B4: GST-SPOP (1-180) (other)
chain: MSRVPSPPPPAEMSSGPVAESWCYTQIKVVKFSYMWTINNFSFCREEMGEVIKSSTFSSGANDKLKWCLRVNPKGLDEESKDYLSLYLLLVSCPKSEVRAKFKFSILNAKGEETKAMESQRAYRFVQGKDWGFKKFIRRDFLLDEANGLLPDDKLTLFCEVSVVQDSVNISGQNTMNMVK
notes: Bacterial GST fusion purified on glutathione-Sepharose. cDNA amplified from Jurkat cells; also called GST-SPOP fusion protein; GST-fused TPBD of SPOP; not shown: glutathione S-transferase tag encoded by the pGEX4T vector (Pharmacia)
B5: SPOP (1-180), not GST-fused (pcDNA3-myc-SPOP (1-180)) (other)
chain: B4 chain
notes: also called in vitro translated SPOP (1-180); TPBD of SPOP; not shown: myc tag of the pcDNA3-myc vector
B6: GST-LTβR(ct) (receptor, UniProt P36941 249-435, looked up)
chain: KSHPSLCRKLGSLLKRRPQGEGPNPVAGSWEPPKAHPYFPDLVQPLLPISGDVSPVSTGLPAAPVLEAGVPQQQSPLDLTREPQLEPGEQSQVAHGTNGIHVTGGSMTITGNIYIYNGPVLGGPPGPGDLPATPEPPYPIPEEGDPGPPGLSTPHQEDGKAWHLAETEHCGATPSNRGPRNQFITHD
notes: domain: cytosolic domain; also called lymphotoxin-β receptor; not shown: glutathione S-transferase tag of plasmid pGEX-LTβR(ct)
B7: GST-CD40(ct) (receptor, UniProt P25942 216-277, looked up)
chain: KKVAKKPTNKAPHPKQEPQEINFPDDLPGSNTAAPVQETLHGCQPVTQEDGKESRISVQERQ
notes: domain: cytosolic domain; not shown: glutathione S-transferase tag of plasmid pGEX-CD40(ct)
B8: GST-fusion protein containing the cytosolic domain of HVEM (receptor, UniProt Q92956 224-283, looked up)
chain: CVKRRKPRGDVVKVIVSVQRKRQEAEGEATVIEALQAPPDVTTVAVEETIPSFTGRSPNH
notes: domain: cytosolic domain; Only named in the 293T lysate experiment; not shown: glutathione S-transferase tag
B9: GST-Fas(ct) (receptor, UniProt P25445 191-335, looked up)
chain: KRKEVQKTCRKHRKENQGSHESPTLNPETVAINLSDVDLSKYITTIAGVMTLSQVKGFVRKNGVNEAKIDEIKNDNVQDTAEQKVQLLRNWHQLHGKKEAYDTLIKDLKKANLCTLAEKIQTIILKDITSDSENSNFRNEIQSLV
notes: domain: cytosolic domain; not shown: glutathione S-transferase tag of plasmid pGEX-Fas(ct)

In one assay the target is T4, GST-HAUSP (1-213) (human, UniProt Q93009 1-213).
T4 construct: Bacterial GST fusion purified on glutathione-Sepharose. cDNA amplified from Jurkat cells; also called GST-fused TPBD of HAUSP; HAUSP TPBD; not shown: glutathione S-transferase tag encoded by the pGEX4T vector (Pharmacia)
Nature of the assay: GST pull-down, 35S in vitro translated protein, SDS-PAGE and fluorography.

The assay “GST-SPOP (1-180)” concerns the target B4. Described as above.
The assay “GST-DR4(ct)” addresses B2. The description is as above.
In assay [1] the target is T1, hTRAF 2 (complete open reading frame, …). Described as above.
Assay [2] addresses T2, hTRAF4 (complete open reading frame, in …). The assay is described as above.
The target of assay [3] is T5, hTRAF5 (complete open reading frame, in vitro translated from pcDNA3-Flag-TRAF5) (human, UniProt O00463 1-557, 35S-methionine labelled).
T5 construct: mature; also called human TRAF 5; not shown: Flag tag of the pcDNA3-Flag vector
Described as above.

Assay [4] has as its target T3, full-length I-TRAF (in vitro translated). The description is as above.
For assay [5], the target named is B5. The assay is described as above.
The target in the assay “GST-LTβR(ct)” is B6. The description is as above.
Assay [6] addresses B1. Nature of the assay: GST pull-down from 293T cell lysate, anti-Myc immunoblot.
Experimental: Bound TRAF proteins were detected by SDS-PAGE and fluorography.
Equal volumes of the in vitro translation mixtures (10 μl) were incubated with GST-fusion proteins containing the cytosolic domains of different members of the TNF-R family (1 μg)(FAS, TNF-R2, CD40, LTβR, NGFRp75, and DR4) immobilized on glutathione-Sepharose. […] Control GST and other GST control proteins were included in all assays After washing, bound proteins were analyzed by SDS-PAGE followed by fluorography for binding assays using in vitro translated proteins. […] Bound proteins were then detected by standard chemiluminescence assay (ECL; Amersham; Piscataway N.J.).

T4 sequence (Q93009 1-213): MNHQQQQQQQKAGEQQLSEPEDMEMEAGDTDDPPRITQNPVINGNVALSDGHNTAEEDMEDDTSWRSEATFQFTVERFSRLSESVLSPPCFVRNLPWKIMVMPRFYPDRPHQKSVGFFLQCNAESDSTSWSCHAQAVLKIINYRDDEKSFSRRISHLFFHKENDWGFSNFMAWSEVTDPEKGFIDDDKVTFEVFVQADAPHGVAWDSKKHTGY
T5 sequence (O00463 whole entry): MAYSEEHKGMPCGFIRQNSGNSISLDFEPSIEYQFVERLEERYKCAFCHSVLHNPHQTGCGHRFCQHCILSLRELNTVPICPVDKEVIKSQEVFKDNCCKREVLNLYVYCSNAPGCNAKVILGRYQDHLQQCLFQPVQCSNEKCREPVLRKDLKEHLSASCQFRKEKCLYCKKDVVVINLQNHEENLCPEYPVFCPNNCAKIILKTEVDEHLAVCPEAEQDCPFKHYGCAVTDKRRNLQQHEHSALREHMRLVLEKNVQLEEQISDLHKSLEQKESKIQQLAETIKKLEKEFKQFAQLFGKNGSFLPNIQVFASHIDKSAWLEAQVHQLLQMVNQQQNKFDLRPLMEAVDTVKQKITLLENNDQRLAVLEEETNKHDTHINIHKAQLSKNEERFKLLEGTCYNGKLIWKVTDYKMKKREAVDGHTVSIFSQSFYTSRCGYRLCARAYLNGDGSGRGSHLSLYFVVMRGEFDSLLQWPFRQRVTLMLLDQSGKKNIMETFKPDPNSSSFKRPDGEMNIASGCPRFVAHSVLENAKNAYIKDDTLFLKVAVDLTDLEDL

Regarding B1, the binding result with GST-HAUSP (1-213) and in the assay with GST-SPOP (1-180) was “no binding” throughout.
Consider B2, for which the binding result with GST-HAUSP (1-213) is “no binding”.
The same measure, in the same setting: the entry for B3 is “no binding”.
With B4, the binding result (with GST-DR4(ct); in assay [1]; in assay [2]; in assay [3]; in [4]; in assay [5]) was “no binding” throughout. The binding result with GST-LTβR(ct) was “no binding”.
Consider B5, for which, in the assay with GST-HAUSP (1-213), the binding result is on record as “no binding”.
Same read-out and setting: the entry for B6 is “no binding”.
Turning to B7, the binding result in the assay with GST-HAUSP (1-213) and in the assay with GST-SPOP (1-180) was “no binding” throughout.
In the case of B8, the binding result in assay [6] is on record as “no binding”.
B9: the binding result with GST-HAUSP (1-213) and with GST-SPOP (1-180) was “no binding” each time.
